Data on two substances can be found in article PMC2835748.

The data set concerns GST-PTB (polypyrimidine tract binding protein). The data set can be described thus: EMSA. To be noted: EMSA: 85 nM RNA, 50 mM HEPES pH 7.6, 25 mM KCl, 2.5 mM MgCl2, 1 mM DTT, 4% glycerol, 0.67 ug/ul yeast tRNA, 10 min at 30 C; 4% native gel with 5% glycerol. Background: A gel shift assay detects complexes by their altered migration in electrophoresis.

In turn, FCV gRNA 1-202 WT displayed a binding signal (relative to 1-245) of 1. FCV gRNA 1-245 registered a binding signal (relative affinity (reference)) of 1.
